Experimental findings from patent US20210179724A1 are described below.

The target of assay [1] is adenosine A2A receptor (Homo sapiens (Human)) (UniProt P29274). Briefly: flow cytometry, HEK293-A2a cells; Parent Singlets in the same table: 230; same picture as FIG. 16O.
Assay [2] shares this target. Description: flow cytometry, HEK293-A2a cells; Parent Singlets in the same table: 230.
For assay [3] the target is unchanged. Briefly: cell-based or functional assay.

adenosine A2A receptor (Homo sapiens (Human)), sequence (P29274 whole entry): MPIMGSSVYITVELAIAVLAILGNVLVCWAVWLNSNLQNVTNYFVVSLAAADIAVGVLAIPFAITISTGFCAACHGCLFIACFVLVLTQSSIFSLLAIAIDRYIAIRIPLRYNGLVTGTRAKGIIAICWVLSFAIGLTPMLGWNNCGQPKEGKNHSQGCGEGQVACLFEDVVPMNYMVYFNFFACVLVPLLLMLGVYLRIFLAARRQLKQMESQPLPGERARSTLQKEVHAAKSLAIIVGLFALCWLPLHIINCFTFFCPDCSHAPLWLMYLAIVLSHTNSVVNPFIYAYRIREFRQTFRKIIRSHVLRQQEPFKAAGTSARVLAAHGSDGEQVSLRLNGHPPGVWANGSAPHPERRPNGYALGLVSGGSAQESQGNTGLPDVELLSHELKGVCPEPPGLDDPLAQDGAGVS

For the substance “Human Adenosine A2aR monoclonal (MAB9497) (antibody)”, the Median : RL1-H (A2a Singlets) in assay [1] and in assay [2] was 7500 throughout.
As for R&D control antibody, in assay [3], the Absolute IC50, A2A cAMP antagonist titration (as in Example 16: titrated IgG, fixed NECA) came out at 9.43; the Absolute IC50, LANCE allosteric cAMP assay, titrated IgG then fixed NECA concentration is 9.43; the Absolute IC50, cAMP allosteric A2A assay (as in Example 15: fixed IgG, NECA titration) was 0.513; the Absolute IC50 of NECA titration in cAMP assay, cells pre-incubated with fixed 100 nM IgG is 2.25.
